The values below come from paper PMC11754657.

For experiment [1], the target named is rabbit skeletal muscle filamentous actin (rabbit) (UniProt P68135).
For experiment [2] the target is unchanged. The source holds these as a separate data set.

Turning to “wild-type MYO15A motor domain complex M15-2IQ:ELC:RLC (1:1:1) (from UniProt P60661 1-151)”, in experiment [1], the K ATPase: F-actin at half-maximal activation of the steady-state ATPase (NADH-coupled assay, 20 °C, 2 mM MgATP, 50 mM KCl) was 29.1 µM and the kcat: extrapolated maximum rate of the F-actin activated steady-state ATPase (NADH-coupled assay, 20 °C) is 5.8 s⁻¹. In addition, the velocity of actin filaments in the in vitro gliding filament assay (motor domain held by anti-GFP, 10 mM KCl, 2 mM ATP, 30 °C) in experiment [2] came out at 473 nm/s.
For “jordan (p.D1647G) MYO15A motor domain complex M15-2IQ:ELC:RLC (1:1:1) (from UniProt P60661 1-151)” the same measures were 114 µM, 0.87 s⁻¹ and 216 nm/s.
